The target in the assay is 30-601-30 nucleosome with Cy3-labeled H2B(K120C) (Xenopus laevis). Description: other fluorescence titration.

Drawing on PMC9107065, this text covers other for 1 substance.

“Saccharomyces cerevisiae Chd1[Y137A] (from UniProt P32657 118-1274) (enzyme)” registered an other of 40%.
